# Experimental data: publication PMC12303382
# Target: Clostridioides difficile transferase B component, CDTb_(45-876), activated with trypsin (Clostridioides difficile) (UniProt O32739)
# Assay: SDS-PAGE of SDS-resistant oligomers
substance,measurement,value
"Clostridioides difficile transferase B component, CDTb_(45-876), activated with trypsin (from UniProt O32739 45-876) (natural protein)",fold enhancement of oligomerization with 2.5 M ethanol over water,7.5 fold
